The results in this text go back to patent US20260092124A1.

For test [1], the target named is human CD40 (human) (UniProt P25942). In words: cell binding (GpL luciferase, HT1080-CD40); mean, n=5.
Test [2] shares this target. The experiment in a line: cell binding (GpL luciferase, HT1080-CD40); single representative experiment.

Sequence of human CD40 (human) (P25942 21-277): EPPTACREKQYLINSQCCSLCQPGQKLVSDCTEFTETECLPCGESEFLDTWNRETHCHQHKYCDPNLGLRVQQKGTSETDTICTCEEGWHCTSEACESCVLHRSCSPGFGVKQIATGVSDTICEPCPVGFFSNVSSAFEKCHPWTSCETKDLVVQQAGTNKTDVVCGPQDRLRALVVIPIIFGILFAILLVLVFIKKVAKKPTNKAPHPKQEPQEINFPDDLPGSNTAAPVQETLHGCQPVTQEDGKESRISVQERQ

Usually Kd stands for the equilibrium constant for the complex coming apart. Consider APX005M IgG1 variant, for which the dissociation constant (Kd) is 0.274 µg/mL with human CD40 (human) [1] and 0.26 µg/mL in the test with human CD40 (human) [2].

Take CP-870,893 IgG1 variant: the Kd in the test with human CD40 (human) [1] came to 0.334 µg/mL; with human CD40 (human) [2] it was 0.35 µg/mL.

For G28.5 IgG1 variant, the dissociation constant Kd in the test with human CD40 (human) [1] is 0.086 µg/mL; with human CD40 (human) [2] it was 0.08 µg/mL.
